Here are results for six substances from US20030077273A1.

The target of assay [1] is human CD21 on Raji cells (CD21+ human Burkitt's lymphoma cell line) (human) (UniProt P20023). As to the kind of experiment: cell ELISA on Raji cells, anti-mouse IgG-AP.
The target is the same in assay [2]. As to the kind of experiment: flow cytometry on Raji cells, anti-mouse IgG-FITC. On the technique in general: Flow cytometry measures light scatter and fluorescence of single cells or particles in a stream.
The target is the same in assay [3]. Put plainly: flow cytometry, control BSA-coated microspheres on Raji cells, 100 microspheres per cell.
Assay [4] has the same target. As to the kind of experiment: flow cytometry, control BSA-coated microspheres on Raji cells, 25 microspheres per cell.
Assay [5] shares this target. As to the kind of experiment: flow cytometry, control BSA-coated microspheres on Raji cells, 50 microspheres per cell.
Assay [6] has the same target. Put plainly: flow cytometry, competition: C3d beads 100:1 on Raji cells with 15 ng HB5.
For assay [7] the target is unchanged. Put plainly: flow cytometry, competition: C3d beads 50:1 on Raji cells with 30 ng HB5.
Assay [8] shares this target. Put plainly: flow cytometry, competition: C3d beads 25:1 on Raji cells with 30 ng HB5.
The target is the same in assay [9]. As to the kind of experiment: flow cytometry, competition: C3d beads 50:1 on Raji cells with 15 ng HB5.
For assay [10] the target is unchanged. As to the kind of experiment: flow cytometry, competition: C3d beads 100:1 on Raji cells with 30 ng HB5.
Assay [11] shares this target. As to the kind of experiment: flow cytometry, competition: C3d beads 25:1 on Raji cells with 15 ng HB5.
Assay [12] deals with recombinant soluble human CD21 (1-2)-Ig fusion protein (human) (UniProt P20023). Put plainly: direct ELISA, sCD21-coated wells, anti-mouse Ig kappa-AP.
The target of assay [13] is mouse Ig G lambda (isotype of the Ig fusion partner), coated on wells. As to the kind of experiment: direct ELISA, MoIg-coated control wells, anti-mouse Ig kappa-AP. For orientation: ELISA stands for enzyme-linked immunosorbent assay.

human CD21 on Raji cells (CD21+ human Burkitt's lymphoma cell line) (human), sequence (P20023 21-1033): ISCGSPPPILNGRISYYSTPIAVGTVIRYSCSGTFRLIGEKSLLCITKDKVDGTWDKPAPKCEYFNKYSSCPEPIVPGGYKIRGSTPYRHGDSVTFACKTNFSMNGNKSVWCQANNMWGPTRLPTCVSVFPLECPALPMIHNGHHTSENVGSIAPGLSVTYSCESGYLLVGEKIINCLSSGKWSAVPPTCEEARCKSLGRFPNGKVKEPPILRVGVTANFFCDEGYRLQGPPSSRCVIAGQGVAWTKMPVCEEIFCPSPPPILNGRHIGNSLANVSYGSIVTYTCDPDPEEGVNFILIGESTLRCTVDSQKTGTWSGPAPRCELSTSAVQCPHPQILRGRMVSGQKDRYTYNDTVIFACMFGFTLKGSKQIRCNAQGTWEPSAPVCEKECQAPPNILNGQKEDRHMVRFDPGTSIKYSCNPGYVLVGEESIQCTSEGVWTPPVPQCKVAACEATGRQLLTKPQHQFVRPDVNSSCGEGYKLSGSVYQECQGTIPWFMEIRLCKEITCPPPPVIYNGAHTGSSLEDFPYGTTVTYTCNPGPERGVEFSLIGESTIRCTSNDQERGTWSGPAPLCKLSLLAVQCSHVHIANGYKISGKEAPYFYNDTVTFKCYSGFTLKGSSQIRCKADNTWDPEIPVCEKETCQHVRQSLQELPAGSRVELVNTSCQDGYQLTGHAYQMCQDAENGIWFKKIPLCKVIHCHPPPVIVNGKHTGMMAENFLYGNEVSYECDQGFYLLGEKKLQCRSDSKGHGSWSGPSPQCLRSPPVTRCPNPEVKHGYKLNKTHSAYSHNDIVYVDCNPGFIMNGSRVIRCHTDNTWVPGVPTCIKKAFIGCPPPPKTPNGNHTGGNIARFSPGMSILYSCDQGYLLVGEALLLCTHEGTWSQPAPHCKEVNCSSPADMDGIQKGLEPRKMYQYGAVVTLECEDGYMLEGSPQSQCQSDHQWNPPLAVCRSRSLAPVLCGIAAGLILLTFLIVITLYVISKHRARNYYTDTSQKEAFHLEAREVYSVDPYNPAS
recombinant soluble human CD21 (1-2)-Ig fusion protein (human), sequence (P20023 21-148): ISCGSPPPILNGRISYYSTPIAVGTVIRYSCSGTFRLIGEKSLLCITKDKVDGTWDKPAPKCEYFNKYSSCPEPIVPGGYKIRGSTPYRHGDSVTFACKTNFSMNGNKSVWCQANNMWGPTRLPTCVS

Take “anti-human CD21 mAb BE-5 (BioSource International) (antibody)”: the OD 550 nm in [1] was determined as 0.546 OD 550 nm. In assay [2], this substance had a Mean Fluorescent Index (MFI) of 85 MFI.

Turning to Mouse IgG (control) (antibody), the OD 550 nm in assay [1] amounted to 0.072 OD 550 nm.

As for “BSA coated on 1 um fluorescent microspheres (from UniProt P02769 25-607)”, the % Cells Bound in assay [3] is 22.6%; in assay [4], 1.5%; in assay [5] it was 6.83%.

Take “mouse anti-human CD21 mAb HB5 (BD Pharmingen) (antibody)”: the % Cells Bound (by C3d beads in presence of mAb) in [6] amounted to 69.3%; in assay [7] it was 39.8%; in assay [8] it was 15.4%; in assay [9], 42.4%; in assay [10], 67.2%; in assay [11], 19.4%. The % Inhibition by mAb in assay [6] came to 6.5%; in [7], 20.5%; in assay [8], 29.7%; in assay [9], 15.3%; in assay [10] it was 9.4%; in [11] it was 11.8%. The substance also yielded a Mean Fluorescent Index (MFI) in assay [2] of 117 MFI.

For “OKB7 (mouse anti-human CD21, Ortho Diagnostics) (antibody)”, the OD was found to be 0.44 OD in assay [12] and 0.096 OD in [13]. In assay [2], the Mean Fluorescent Index (MFI) was 123 MFI.

The substance anti-human CD21 mAb Bly-4 (antibody) displayed an OD 550 nm in assay [1] of 1.17 OD 550 nm.
